The target of assay [1] is T1, GST–human PPARγ (full-length PPARγ–GST fusion protein) (human, UniProt P37231 1-505).
T1 sequence (looked up): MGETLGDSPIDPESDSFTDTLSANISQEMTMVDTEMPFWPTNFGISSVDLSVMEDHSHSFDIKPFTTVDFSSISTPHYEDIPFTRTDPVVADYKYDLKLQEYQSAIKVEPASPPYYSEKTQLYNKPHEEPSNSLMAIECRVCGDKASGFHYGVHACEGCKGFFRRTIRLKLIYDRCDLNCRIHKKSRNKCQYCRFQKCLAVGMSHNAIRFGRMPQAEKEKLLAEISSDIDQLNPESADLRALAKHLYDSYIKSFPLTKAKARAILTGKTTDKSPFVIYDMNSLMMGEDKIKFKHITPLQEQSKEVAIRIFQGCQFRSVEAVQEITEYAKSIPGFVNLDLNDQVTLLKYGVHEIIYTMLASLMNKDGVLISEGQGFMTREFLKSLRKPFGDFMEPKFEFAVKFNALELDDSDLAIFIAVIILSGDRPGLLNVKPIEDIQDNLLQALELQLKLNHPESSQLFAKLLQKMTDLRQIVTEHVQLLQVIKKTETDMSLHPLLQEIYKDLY
Kind of assay: pull-down.

Assay [2] concerns the target T1, GST–human PPARγ (full-length PPARγ–GST …). Kind of assay: pull-down. This is another data set of the same source.

B1: SRC-1-S2, a truncated SRC-1 (steroid receptor co-activator-1) protein (amino acids 623–770) (domain or fragment, human, UniProt Q15788 623-770, looked up)
chain: DSKYSQTSHKLVQLLTTTAEQQLRHADIDTSCKDVLSCTGTSNSASANSSGGSCPSSHSSLTERHKILHRLLQEGSPSDITTLSVEPDKKDSASTSVSVTGQVQGNSSIKLELDASKKKESKDHQLLRYLLDKDEKDLRSTPNLSLDD
Regarding B1, the “fold binding relative to the vehicle control, with 50 μM Pio” value in assay [1] turned out to be 17 fold. In assay [2], the “fold binding relative to the vehicle control, with 50 μM FPP” value was found to be 6.1 fold and the “fold binding relative to the vehicle control, with 100 μM FPP” value turned out to be 15 fold.

The record behind these values is article PMC3253524 (Biochemical Journal, 2011).
